For one test, the target named is CD28 (human, UniProt P10747 19-152). Description: ELISA on coated protein (Table 9). The method, then: (§1) 100 uL of the diluted recombinant proteins were added to each well of 96-well plate. The plates were sealed with plastic film and incubated at 4° C. overnight. The plates were washed twice with wash buffer (PBS+0.01% (v/v) Tween20), and incubated with blocking buffer (PBS+0.01% (v/v) Tween20+1% (w/w) BSA) at room temperature for 2 hours. The blocking buffer was aspirated away, and 100 uL of purified anti-PD-1 antibodies were added to each well and incubated for 2 hours at 37° C. The plates were washed three times with wash buffer (PBS+0.01% (v/v) Tween20). HRP-conjugated secondary antibody (Sigma) was added to each well and incubated for 2 hours at 37° C. After the plates were washed three times with wash buffer, 100 uL TMB substrate was added to each well and incubated for 30 minutes at room temperature. 100 uL stop solution (0.1N HCl) was added to each well to stop the reaction. The absorbance at 450 nm was measured with an ELISA plate reader (384plus SpectraMax, Molecular Devices).
On the technique in general: In an ELISA, binding on a coated surface is turned into a signal by an enzyme label.

Another test concerns the target T1, B7-1 (human, UniProt P33681 35-242).
T1 sequence (looked up): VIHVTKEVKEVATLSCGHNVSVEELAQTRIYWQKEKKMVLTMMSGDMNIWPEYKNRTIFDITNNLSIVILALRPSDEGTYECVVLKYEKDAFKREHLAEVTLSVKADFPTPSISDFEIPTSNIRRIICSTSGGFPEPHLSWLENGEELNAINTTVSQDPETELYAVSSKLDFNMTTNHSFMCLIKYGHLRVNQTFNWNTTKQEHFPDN
Description: ELISA on coated protein (Table 9). The method, then:
as §1

For another test, the target named is T2, ICOS (human, UniProt Q9Y6W8 21-140, limits assumed).
T2 sequence (looked up): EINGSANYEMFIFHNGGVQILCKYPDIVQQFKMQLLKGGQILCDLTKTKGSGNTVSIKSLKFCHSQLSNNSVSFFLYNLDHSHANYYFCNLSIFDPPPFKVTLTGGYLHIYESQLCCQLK
Kind of test: ELISA on coated protein (Table 9). The method, then:
as §1

The target in a further test is T3, CTLA4 (human, UniProt P16410 37-162, limits assumed).
T3 sequence (looked up): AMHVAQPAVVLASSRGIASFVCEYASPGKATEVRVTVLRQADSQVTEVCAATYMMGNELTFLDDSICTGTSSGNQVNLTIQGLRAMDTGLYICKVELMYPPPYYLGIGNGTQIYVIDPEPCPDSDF
Kind of test: ELISA on coated protein (Table 9). The method, then:
as §1

Test [1] deals with T4, cyno PD-1^ECD-hFc protein (cyno monkey, UniProt B0LAJ3 25-167).
T4 construct: Prepared by the method for Immunogen A; also called Cyno Monkey PD-1^ECD-hFc; cyno monkey PD-1-hFc; not shown: human IgG Fc fragment (hFc) and its junction to the ECD
Kind of test: ELISA, coated cyno PD-1ECD-hFc; antibody 10 nM. The method, then: as §1

In test [2] the target is T4, cyno PD-1^ECD-hFc protein. Description: ELISA, coated cyno PD-1ECD-hFc; antibody 0.1 nM. The method, then: as §1
Test [3] has as its target T5, human PD-1^ECD-hFc protein (Immunogen A) (human, UniProt Q15116 25-167).
T5 construct: Biotinylated for the Octet assay; also called PD-1-hFc; hPD-1^ECD-hFc; not shown: human IgG Fc fragment (hFc)
Description: ELISA, coated human PD-1ECD-hFc; antibody 100 nM. The method, then: as §1

The target in test [4] is T4, cyno PD-1^ECD-hFc protein. Kind of test: ELISA, coated cyno PD-1ECD-hFc; antibody 0.01 nM. The method, then:
as §1

The target in test [5] is T6, full length human PD-1 on cells (human, UniProt Q15116 25-288).
T6 construct: Also used here for PD-1 on human T cells/PBMC; also called CHO-K1-hPD-1; hPD-1
Kind of test: flow cytometry, CHO-K1-hPD-1 cells; antibody 1 nM. The text has this: CHO-K1 cells were stably transfected with pIRES plasmid containing the nucleic acid sequence encoding full length human PD-1 (see Example 2, step 2) to generate CHO-K1 cells stably expressing human PD-1 (herein referred to as CHO-K1-hPD-1 cells). Other CHO-K1 were stably transfected with pIRES plasmid containing the nucleic acid sequence encoding full length cyno PD-1 to generate CHO-K1 cells stably expressing cyno PD-1 (herein referred to as CHO-K1-cPD-1 cells). CHO-K1-hPD-1 and CHO-K1-cPD-1 cells were cultured and expanded in T-75 culture flasks to 90% confluence. The culture media was aspirated, and the cells were washed twice with HBSS (Hanks Balanced Salt Solution, Invitrogen). The cells were treated with enzyme-free cell dissociation solution (Versene solution, Invitrogen) and collected. The cells were then washed twice with HBSS, cell counts were determined, and cells were resuspended with HBSS at 2×10⁶ cells/mL. Goat serum was added to the cell suspension to a final concentration of 1%, and the cells were blocked for 30 minutes on ice and then washed twice with HBSS. The cells were collected after centrifugation and resuspended in FACS buffer (HBSS+1% BSA, v/v) at 2×10⁶ cells/mL. 100 uL of the cell suspension were then added to each well of 96-well plate. 100 uL of purified anti-PD-1 antibodies from Example 2 were added to each well of the 96-well plate and incubated for 2 hours on ice. […] The samples were washed three times with FACS buffer, and 100 uL fixation buffer (4% paraformaldehyde v/v) were added to each well and incubated for 10 minutes. The cells were then washed twice with FACS buffer and resuspended in 100 uL FACS buffer. The mean fluorescence intensity (MFI) was determined using FACS Calibur (BD), and the results are shown in FIGS. 7-8 and in Tables 10-11.

For test [6], the target named is T6, full length human PD-1 on cells. Description: cell-based receptor-ligand blocking, flow cytometry: CHO-K1-hPD-1 cells, blocked ligand biotinylated PD-L1-Fc, streptavidin-Alexa 488. The method, then: CHO-K1-hPD-1 cells were cultured and expanded in T-75 culture flasks to 60-80% confluence. The culture media was aspirated, and the cells were washed twice with PBS. The cells were treated with TrypLE™ Express (Invitrogen) and collected. Trypsin was neutralized by the addition of 8 mL culture medium, and cell counts were determined. […] The cells were blocked for 15 minutes at 37° C. Meanwhile, the wells of 96-well round-bottom plates were blocked with 200 uL blocking buffer for 1 hour at 37° C. The blocking buffer was discarded, and 200 uL cells were dispensed to each well of the 96-well plates (2×10^5 cells/well). The plates were centrifuged at 500 g for 5 minutes, and the supernatants were discarded. The cells were resuspended in 100 uL antibody prepared in blocking buffer. […] The plates were incubated at 4° C. for 90 minutes and washed twice with 200 uL blocking buffer. […] The plates were washed three times with blocking buffer and resuspended in 200 uL blocking buffer. The mean fluorescence intensity (MFI) was determined using FACS Calibur (BD).
In general terms: A flow cytometer gives signals particle by particle.

From US20180214548A1 (SHANGHAI YUNYI HEALTHCARE AND TECHNOLOGY, published 2018) come the findings set out here.

T6 sequence (Q15116 25-288 limits assumed): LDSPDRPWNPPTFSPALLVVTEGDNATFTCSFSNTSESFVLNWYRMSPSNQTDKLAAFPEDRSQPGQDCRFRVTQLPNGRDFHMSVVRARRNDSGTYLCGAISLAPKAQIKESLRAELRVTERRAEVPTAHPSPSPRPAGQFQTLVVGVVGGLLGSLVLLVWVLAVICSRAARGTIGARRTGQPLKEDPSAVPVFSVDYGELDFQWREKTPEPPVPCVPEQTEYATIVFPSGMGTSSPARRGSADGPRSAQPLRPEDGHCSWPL
T4 sequence (B0LAJ3 entry or part of it limits assumed): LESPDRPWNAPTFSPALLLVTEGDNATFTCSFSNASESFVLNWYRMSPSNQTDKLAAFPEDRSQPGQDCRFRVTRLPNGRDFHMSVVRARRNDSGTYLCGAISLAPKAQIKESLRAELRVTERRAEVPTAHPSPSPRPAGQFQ
Chain of CD28 (P10747 19-152 limits assumed): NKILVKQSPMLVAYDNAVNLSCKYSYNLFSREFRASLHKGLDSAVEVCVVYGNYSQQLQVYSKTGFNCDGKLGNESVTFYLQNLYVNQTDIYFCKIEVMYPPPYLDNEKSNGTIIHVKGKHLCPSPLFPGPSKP
T5 sequence (Q15116 25-167): as the sequence (B0LAJ3 entry or part of it limits assumed) above, with E2D, A10P, L19V, A35T, R75Q counted along it

B1: chimeric anti-PD-1 antibody 21G8F11 (antibody, V domains shown)
VH: EVQLLESGGGLAQPGGSLRLSCAASGFSFNTYLMHWVRQAPGKGLEWVSAISGGGGNTYYADSVKGRFTISRDNSKNTLYLQMNSLRAEDTAVYYCAKENRIPVAPFDYWGQGTLVTVSS
VL: DIQMTQSPSTLSASVGDRVTITCRASQSISTWLAWYQQKPGKAPKLLIYKASSLESGVPSRFSGSGSGTEFTLTISSLQPDDLATYYCQQYNSFSWTFGQGTKVEIK
notes: Purified from hybridoma of Harbour H2L2 mice: human variable regions, rat constant regions
Turning to B1, the binding result with CD28, with B7-1, with ICOS and with CTLA4 was “no binding” throughout. For the same molecule, the OD450 nm turned out to be 2.63 in test [1], 0.972 in [2], 2.73 in test [3] and 0.27 in test [4]. For the same molecule, the Mean fluorescence intensity in test [5] was found to be 166. Moreover, the “IC50 (read off the curve)” value in [6] was about 6 nM.

B2: chimeric anti-PD-1 antibody 76G5B3 (antibody, V domains shown)
VH: QVQLVESGGGVVQPGRSLRLSCAASGFTFSDYGFHWVRQAPGKGLEWVAVIWYDGSNEYYTDSVKGRFTISRDNSKNTLYLQMNSLRAEDTAMYFCVVNPFDYWGQGTLVTVSS
VL: DIQMTQSPSSLSAFVGDRVTITCRASQGINHYLAWYQQKPGKAPNLLILAASTLLSGVPSRFGGRGSGTDFTLIISSLQPEDVATYYCQKYDSAPYTFGQGTKLEIK
notes: as for B1
For B2, the binding result with CD28, in the test with B7-1, with ICOS and in the test with CTLA4 was “no binding” throughout. The OD450 nm in test [1] was 1.62; in test [2], 0.56; in test [3], 3.05; in [4], 0.14. In test [5], this molecule registered a Mean fluorescence intensity of 166. Further, the “IC50 (read off the curve)” value in test [6] was about 0.8 nM.

B3: chimeric anti-PD-1 antibody 32B5C7 (antibody, V domains shown)
VH: EVQLLESGGGLVQPGGSLRLSCAASGFTFSSYAMSWVRQAPGKGLEWVSTISGSGGTTYYADSVKGRFTISRDNSKNTLYLQMNSLRAEDTAVYYCTLTGDPDYWGQGTLVTVSS
VL: EIVLTQSPATLSLSPGERATLSCRASQSVSSYLAWYQQKPGQAPRLLIYDASKRATGIPARFSGSGSGTDFTLTISSLEPEDFAVYYCQQRNNWPLTFGGGTKVEIK
notes: as for B1
For the molecule B3, the binding result in the test with CD28, with B7-1, with ICOS and in the test with CTLA4 was “no binding” throughout. The OD450 nm in test [1] came out at 1.51; in [2], 0.29; in test [3], 3.05; in test [4] it was 0.1. This molecule showed a Mean fluorescence intensity in [5] of 51.1. Besides, the “IC50 (read off the curve)” value in test [6] was about 6 nM.
